{"source": "patent US12012457", "about": "(SYNTHEKINE, dated 2024)", "binders": {"B1": {"name": "mIL23R VHH46 (VHH)", "VHH": "QVQLQESGGGLVQPGGSLRLSCAASGFTFRLSAMRWVRQAPGKGLEWVSGIDSRGSTIYADSVKGRFTISKDDAKNTLYLQLNSLKTEDTAMYYCAQGVYGDTYSGSQGTQVTVSS"}, "B2": {"name": "mIL23R VHH3 (VHH)", "VHH": "QVQLQESGGGSVQAGGSLRLSCTASVNTYCEYNMSWYRQAPGKEREFVSGVDSDGSTRYSESVKGRFTISQDNAKNTMYLQMNGLKPEDTAMYYCKTYVCTFCSGNSCYYEYKYYYEGQGTQVTVSS"}, "B3": {"name": "mIL23R VHH4 (VHH)", "VHH": "QVQLQESGGGSVQAGGSLRLSCAASGYTYSNNCMGWFRQAPGKDRERIANIYTGGGRTTYADSVKGRFTISQDSAKSTVYLQMNSLKPEDTAMYYCAAGSCGSARSEYSYWGQGTQVTVSS"}, "B4": {"name": "mIL23R VHH26 (VHH)", "VHH": "QVQLQESGGGSVQAGGSLRLSCAASGYTFCMAWFRQAPGKEREGVARFYTRDGYTYYSDSVKGRFTISQNNAKNTLYLQMNSLKSEDTAMYYCAADLTRCSSNKNDFRYWGQGTQVTVSS"}, "B5": {"name": "mIL23R VHH5 (VHH)", "VHH": "B4 VHH with T98A"}, "B6": {"name": "mIL23R VHH22 (VHH)", "VHH": "B4 VHH with G53S"}, "B7": {"name": "mIL23R VHH24 (VHH)", "VHH": "B4 VHH with A24V, D59G"}, "B8": {"name": "mIL23R VHH43 (VHH)", "VHH": "B4 VHH with N70D"}, "B9": {"name": "mIL23R VHH6 (VHH)", "VHH": "QVQLQESGGGSVQAGGSLRLSCAASGYTSGNYWMGWFRQAPGKEREGVATLWTGGASTFYGDSVKGRFTISRDNFKNTLYLQMNSLKVEDTAMYYCAADPALRLGANILRPAEYKYWGQGTQVTVSS"}, "B10": {"name": "mIL23R VHH29 (VHH)", "VHH": "QVQLQESGGGLVQPGGSLRLSCAASGFTFSTSAMTWVRQAPGKGLDWVSGIDSGGTTVYADSVKGRFTISKDNAKNTLYLQMNSLKTEDTAVYYCATGLPWGNTWRTRGQGTQVTVSS"}, "B11": {"name": "mIL23R VHH7 (VHH)", "VHH": "B10 VHH with T31R, K71R, N73S, T97I"}, "B12": {"name": "mIL23R VHH14 (VHH)", "VHH": "B10 VHH with S30R, K71R, N73S, T97M"}, "B13": {"name": "mIL23R VHH20 (VHH)", "VHH": "B10 VHH with T31S, F67A, S70L"}, "B14": {"name": "mIL23R VHH21 (VHH)", "VHH": "B10 VHH with A24T, T31S, R108T"}, "B15": {"name": "mIL23R VHH32 (VHH)", "VHH": "B10 VHH with Q13R, T31R, K71R, N73S, T97I"}, "B16": {"name": "mIL23R VHH33 (VHH)", "VHH": "B10 VHH with A23T, A24T, T31S, R108T"}, "B17": {"name": "mIL23R VHH35 (VHH)", "VHH": "B10 VHH with S21A, A23S, T31S, F67A, S70L"}, "B18": {"name": "mIL23R VHH37 (VHH)", "VHH": "B10 VHH with A24T, T31S, S32G, R108T"}, "B19": {"name": "mIL23R VHH38 (VHH)", "VHH": "B10 VHH with T104I"}, "B20": {"name": "mIL23R VHH39 (VHH)", "VHH": "B10 VHH with T31R, K71R, N73S, S84G, T97I"}, "B21": {"name": "mIL23R VHH41 (VHH)", "VHH": "B10 VHH with S21T"}, "B22": {"name": "hIL23R VHH1 (VHH)", "VHH": "QVQLQESGGGSVQAGGSLRLSCAASGYTYCSYDMSWYRQAPGKKREFVSAFNSDGTTSYADSVKGRFTISQDKAKNTVYLQMNSLKPEDTAMYYCKTDPHVQSSGGYCPPYWGQGTQVTVSS"}, "B23": {"name": "hIL23R VHH5 (VHH)", "VHH": "B22 VHH with F51I, N52A, T56S, V63L, K73N"}, "B24": {"name": "hIL23R VHH10 (VHH)", "VHH": "QVQLQESGGGSVQAGGSLKLSCAASGYTYCNYDIAWYRQAPGKERKFVSAIASDGSTSYADSVKGRFTISQDNAKNTVYLQMNSLKPEDTAMYYCKTDPIATMTRRCDPYWGQGTQVTVSS"}, "B25": {"name": "hIL23R VHH7 (VHH)", "VHH": "B24 VHH with K19R, S56I, A101S, M103I, R106I"}, "B26": {"name": "hIL23R VHH11 (VHH)", "VHH": "B24 VHH with K19R, N31S, I34M, A35T, E44K, K46E, A52D, M103I, T104S, P109S"}, "B27": {"name": "hIL23R VHH16 (VHH)", "VHH": "B24 VHH with Q13E, S17A, K19T, A23V"}, "B28": {"name": "hIL23R VHH18 (VHH)", "VHH": "B24 VHH with K19R, S21A"}, "B29": {"name": "hIL23R VHH12 (VHH)", "VHH": "QVQLQESGGGSVQAGGSLRLSCAASGYTSSSRCMGWFRQAPGKEREGVARIYTPTRTTWYADSVKGRFTISQDNAKNTVYLEMASLKPEDTAKYFCAAGASCAVDLFSYWGQGTQVTVSS"}, "B30": {"name": "hIL23R VHH13 (VHH)", "VHH": "QVQLQESGGGSVQAGGSLRLSCAASGYTYCSYDMKWYRQAPGKKREFVSAIDSDGSTSYADSVKGRFTISQDNAKNTVYLQMNSLKPEDTAMYYCKTEGTIPVGVCPNYWGQGTQVTVSS"}, "B31": {"name": "hIL23R VHH8 (VHH)", "VHH": "B30 VHH with G10D, K44E, A50G, T57I, V105A"}, "B32": {"name": "hIL23R VHH14 (VHH)", "VHH": "B30 VHH with S11L, A14P, I101V"}, "B33": {"name": "hIL23R VHH15 (VHH)", "VHH": "QVQLQESGGGSVQAGGSLRLSCAASPGTYTSRYMGWFRQAPGKEREGVATIWPAGGNTVYADSVKGRFTISQDGAKKTVYLQMNSLKPEDTAMYYCAAAKYGGTSLAPYTYNYWGQGTQVTVSS"}, "B34": {"name": "hIL23R VHH17 (VHH)", "VHH": "QVQLQESGGGSVQAGGSLRLSCTASGYTFSTMKYMGWFRQAPGKEREGVAAIWIAAGNTYYADSVKGRFTISQDNTKNTVYLQMNSLKPEDTALYYCAAARYGFVPSTWYLPERYNYWGQGTQVTVSS"}, "B35": {"name": "hIL23R VHH19 (VHH)", "VHH": "QVQLQESGGGSVQAGGSLRLSCAASGYTSCSYDMSWYRQAPGKKREFVSAIHSDGTTSYADSMKGRFTISQDNAKNTVYLQMNSLKPEDTAMYYCKTDPNYSDHVCPPYWGRGTQVTVSS"}, "B36": {"name": "hIL23R VHH2 (VHH)", "VHH": "QVQLQESGGGSVQAGGSLRLSCAASGYTYCSYDMSWYRQAPGKKREFVSSFNSDGSTSYADSVKGRFTISQDNAKNTVYLQMNSLKPEDTAMYYCKTDPHADWGAPCGGDYWGQGTQVTVSS"}, "B37": {"name": "hIL23R VHH4 (VHH)", "VHH": "B36 VHH with Y27S, S31T, S35T, K44R, S50A, F51I, H100N, A101S, D102G"}, "B38": {"name": "hIL23R VHH3 (VHH)", "VHH": "QVQLQESGGGSVQAGESLRLSCAASGYTYCTYDMTWYRQAPGKKREFVSGIHSDGTTSYADSVKGRFTISQDNAENTVYLQMNSLKPEDTAMYYCKTDPIATITRRCDSYWGQGTQVTVSS"}, "B39": {"name": "hIL23R VHH6 (VHH)", "VHH": "QVQLQESGGGLVQPGGSLRLSCAASGYTYCSYDMGWYRQAPGKKRKFVSSINSDGTTSYADSVKGRFTISQDNAKNTVYLQMNSLKPEDTAMYYCKTDPQTRPGKPCADYWGQGTQVTVSS"}}, "note": "Residue numbers refer to the chain shown, from its start.", "data": [{"target": "T1, extracellular domain of mouse IL23R (mIL23R ECD) (mouse, UniProt Q8K4B4 24-374)", "T1 construct": "also called mIL-23 ECD antigen", "T1 sequence": "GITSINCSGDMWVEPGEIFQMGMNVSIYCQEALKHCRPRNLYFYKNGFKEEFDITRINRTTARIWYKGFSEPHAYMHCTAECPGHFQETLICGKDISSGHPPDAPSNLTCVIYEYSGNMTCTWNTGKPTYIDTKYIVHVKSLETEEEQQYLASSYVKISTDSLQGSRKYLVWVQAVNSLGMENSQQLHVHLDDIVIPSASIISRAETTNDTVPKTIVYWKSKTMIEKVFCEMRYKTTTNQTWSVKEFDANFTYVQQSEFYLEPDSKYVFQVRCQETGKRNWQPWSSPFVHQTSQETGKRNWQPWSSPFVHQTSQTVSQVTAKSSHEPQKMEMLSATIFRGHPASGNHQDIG", "assay": "periplasmic extract ELISA (PE-ELISA), 96-well plate, colorimetric", "values": [{"binder": "B1", "binding result": "binds"}, {"binder": "B2", "binding result": "binds"}, {"binder": "B3", "binding result": "binds"}, {"binder": "B4", "binding result": "binds"}, {"binder": "B5", "binding result": "binds"}, {"binder": "B6", "binding result": "binds"}, {"binder": "B7", "binding result": "binds"}, {"binder": "B8", "binding result": "binds"}, {"binder": "B9", "binding result": "binds"}, {"binder": "B10", "binding result": "binds"}, {"binder": "B11", "binding result": "binds"}, {"binder": "B12", "binding result": "binds"}, {"binder": "B13", "binding result": "binds"}, {"binder": "B14", "binding result": "binds"}, {"binder": "B15", "binding result": "binds"}, {"binder": "B16", "binding result": "binds"}, {"binder": "B17", "binding result": "binds"}, {"binder": "B18", "binding result": "binds"}, {"binder": "B19", "binding result": "binds"}, {"binder": "B20", "binding result": "binds"}, {"binder": "B21", "binding result": "binds"}]}, {"target": "T2, extracellular domain of human IL23R (hIL23R ECD) (human, UniProt Q5VWK5 24-355)", "T2 construct": "also called hIL-23 ECD antigen", "T2 sequence": "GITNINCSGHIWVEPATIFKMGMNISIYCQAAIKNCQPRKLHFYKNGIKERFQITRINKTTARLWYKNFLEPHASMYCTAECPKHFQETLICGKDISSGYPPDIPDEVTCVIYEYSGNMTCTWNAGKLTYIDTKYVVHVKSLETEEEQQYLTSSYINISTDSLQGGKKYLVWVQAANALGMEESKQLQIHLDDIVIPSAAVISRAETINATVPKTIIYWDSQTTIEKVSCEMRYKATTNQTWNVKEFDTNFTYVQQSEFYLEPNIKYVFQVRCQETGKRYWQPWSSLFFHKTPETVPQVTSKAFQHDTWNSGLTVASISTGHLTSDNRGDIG", "assay": "periplasmic extract ELISA (PE-ELISA), 96-well plate, colorimetric", "values": [{"binder": "B22", "binding result": "binds"}, {"binder": "B23", "binding result": "binds"}, {"binder": "B24", "binding result": "binds"}, {"binder": "B25", "binding result": "binds"}, {"binder": "B26", "binding result": "binds"}, {"binder": "B27", "binding result": "binds"}, {"binder": "B28", "binding result": "binds"}, {"binder": "B29", "binding result": "binds"}, {"binder": "B30", "binding result": "binds"}, {"binder": "B31", "binding result": "binds"}, {"binder": "B32", "binding result": "binds"}, {"binder": "B33", "binding result": "binds"}, {"binder": "B34", "binding result": "binds"}, {"binder": "B35", "binding result": "binds"}, {"binder": "B36", "binding result": "binds"}, {"binder": "B37", "binding result": "binds"}, {"binder": "B38", "binding result": "binds"}, {"binder": "B39", "binding result": "binds"}]}]}
